Key:
Factor Xa (human) = Factor Xa (human) (UniProt P00742); assay: discontinuous Factor Xa inhibition assay, chromogenic substrate SpFXa
[1] = biological target: thrombin (free thrombin) (human) (UniProt P00734); assay: discontinuous thrombin inhibition assay, chromogenic substrate; with 5 µg/ml heparin
trypsin = assay: discontinuous trypsin inhibition assay, chromogenic substrate SpTH
[2] = biological target: thrombin (free thrombin) (human) (UniProt P00734); assay: discontinuous thrombin inhibition assay, chromogenic substrate; no TM

Factor Xa (human), sequence (P00742 41-179 limits assumed, form in doubt, chain 1 of 2): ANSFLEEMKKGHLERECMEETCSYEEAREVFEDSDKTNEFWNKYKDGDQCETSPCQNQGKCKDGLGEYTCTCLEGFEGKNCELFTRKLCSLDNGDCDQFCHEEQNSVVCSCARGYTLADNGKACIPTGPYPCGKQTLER
Factor Xa (human), sequence (P00742 235-488 limits assumed, form in doubt, chain 2 of 2): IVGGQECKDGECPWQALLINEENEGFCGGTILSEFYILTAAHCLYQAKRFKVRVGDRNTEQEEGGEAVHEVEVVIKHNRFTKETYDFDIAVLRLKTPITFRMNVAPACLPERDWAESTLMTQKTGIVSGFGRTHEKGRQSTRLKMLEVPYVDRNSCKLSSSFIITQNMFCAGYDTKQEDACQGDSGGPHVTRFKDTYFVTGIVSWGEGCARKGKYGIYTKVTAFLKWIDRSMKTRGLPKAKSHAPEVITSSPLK

Substance: AT-neut (antithrombin H-helix mutant Asp309 to Asn, Glu310, 312, 313 to Gln) (from UniProt P01008 33-464)
- second-order rate constant (κ2) of inhibition (Factor Xa (human)): 990 M⁻¹ s⁻¹
- second-order rate constant (κ2) of inhibition [1]: 1.4e+06 M⁻¹ s⁻¹
- second-order rate constant (κ2) of inhibition (trypsin): 17000 M⁻¹ s⁻¹
- second-order rate constant (κ2) of inhibition [2]: 4100 M⁻¹ s⁻¹

Reference: patent US20010055591A1
